According to article PMC549075:

Target: Lamb brain tubulin (lamb)

B1: HIV-1 Tat protein, Oyi strain (natural protein)
chain: MEPVDPRLEPWKHPGSQPKTASNNCYCKRCCLHCQVCFTKKGLGISYGRKKRRQRRRAPQDSKTHQVSLSKQPASQPRGDPTGPKESKKKVERETETDPED
For B1, the ΔOD 350 nm plateau of 15 μM tubulin at 37°C with 8 μM compound was 0.8 ΔOD 350 nm and the ΔOD ratio (plateau with 8 μM compound divided by plateau of tubulin alone) was 2.63.
